Laboratory results taken from US20200325239A1, “Modulation of Aminopeptidase N/CD13 and Rheumatoid Arthritis” (THE REGENTS OF THE UNIVERSITY OF MICHIGAN, priority 2016, published 2020).

Experiments:
[1] = tested on: Human dermal microvascular endothelial cell (HMVEC); experiment: HMVEC chemotaxis in modified Boyden chamber; assay type: cell-based; settings: p<0.05 vs PBS; dose-dependent
Protocol: FIG. 10. Human dermal microvascular endothelial cell (HMVEC) chemotaxis was performed in a modified Boyden chamber using CD13 at various concentrations. […] CD13 induced HMVEC migration from 500-2000 ng/ml (p<0.05). Data represent the mean of 3 individual experiments±SEM. Three high-power fields (hpf) (×400) were counted in each replicate well and results were expressed as cells per hpf. PBS served as negative control.

C57Bl/6 mice [2] = experiment: Matrigel plug angiogenesis assay in vivo (hemoglobin); set-up: species or system mouse; settings: subcutaneous Matrigel 500 μl, plugs harvested after 7 days
Protocol: FIG. 13. To test the effect of CD13 in angiogenesis in vivo, Matrigel plug assays were performed using C57Bl/6 mice. Each mouse was given a subcutaneous injection of sterile GFR Matrigel (500 μl/injection) containing either CD13 or PBS, a negative control. Matrigel plugs were harvested after 7 days. Hemoglobin (Hb) was determined. […] Results are represented as the mean+SEM and *p<0.05 was considered significant. n=number of mice per group.
This assay is performed as described previously (56-58). RA SFs sham- or CD13-depleted (50 μl in 500 μl of Matrigel) are injected subcutaneously in C57Bl/6 mice. After 7 days, the mice are euthanized and the Matrigel plugs are removed, weighed, and processed for hemoglobin (Hb) measurement or immunofluorescence. Hemoglobin (Hb) concentration is determined either by the Drabkin method using a Drabkin's reagent kit (Sigma) or with the 3,3,5,5-tetramethylbenzidine substrate system (Sigma) (56, 61, 62). Hb values are normalized to plug weight.

normal human MN = experiment: Normal human MN chemotaxis in modified Boyden chambers; assay type: cell-based; settings: PBS negative control
Protocol: FIG. 14. To evaluate the contribution of CD13 to RA inflammation by recruiting MNs, normal human MN chemotaxis assays were performed in modified Boyden chambers. […] PBS served as negative control. n=number of experiments. The results are expressed as mean+SEM and *p<0.05 was considered significant. n=number of replicates.

RA FLS = experiment: FLS growth assay (Essen IncuCyte, percent confluence); assay type: cell-based, human; settings: proliferation and migration
Protocol: FIG. 5. […] FLS were seeded on 96-well plates overnight. An Essen Incucyte system was used for both growth (A) and migration (B) assays. Growth was calculated as the difference in percent confluence from time 0. Migration was measured in a scratch-wound assay using relative wound density. All data are expressed as a ratio to untreated FLS of the same cell line. mean±SEM n≥4 (*p≤0.05).
RA FLS were seeded on Essen Image Lock 96-well plates (Essen Bioscience, Ann Arbor, Mich.) overnight at either 3,000 cells/well for growth or 30,000 cells/well for migration. For growth, the 20% FBS CMRL media was removed and cells were washed 1× with PBS. 100 μl of medium alone (control) or medium containing anti-CD3 (25 or 50 ng/ml, OKT3, used as a non-reactive isotype control antibody in this experiment), anti-CD13 1D7 or WM15 (Biolegend, San Diego, Calif.) (25 or 50 ng/ml), or CD13 chemical inhibitors actinonin (Sigma-Aldrich, St. Louis, Mo.) or bestatin (Sigma-Aldrich, St. Louis, Mo.) (10 μM and 50 μM, respectively) was added to the wells. Images and confluence data were collected using an Essen IncuCyte (Essen Bioscience, Ann Arbor, Mich.). For the scratch-wound migration assay, wounds were made via the Essen scratch-wound tool in the seeded 96-well plate. Plates were then washed 2× with PBS and medium was added similar to the growth plates. Data were collected and the confluence or relative wound density calculated by the Essen IncuCyte.

C57Bl/6 mice [3] = experiment: Mouse model of inflammatory arthritis, intra-articular injection into knee joints; assay type: in vivo; settings: 500 ng in 20 μl of PBS, 24 and 48 hours
Protocol: To use the mouse model of inflammatory arthritis, female C57Bl/6 mice (8-10 weeks old, Harlan Laboratories) are anesthetized with ketamine (80-120 mg/kg body weight) and xylazine (5-10 mg/kg body weight) intraperitoneally, and the knee circumference is determined by caliper measurements before intra-articular injection, as described (67). The anesthetized mice receive 20 μl/knee joint of PBS and recombinant mouse CD13 (500 ng in 20 μl of PBS). Circumference measurements are obtained in a blinded manner. Mice are euthanized after 24 and 48 hours of the intraarticular injection. Mouse knees are measured before euthanasia. Hematoxylin and eosin (H&E) staining of the mouse knee cryosections is performed to determine the inflammatory response of CD13 (67). Immunofluorescence staining is also performed on cryosections using rat anti-mouse F4/80 antibody (GenTex) to detect MNs/macrophages. The number of F4/80-positive MNs/macrophages is calculated as the average number of cells in 3 fields (400X).

[4] = tested on: Human dermal microvascular endothelial cell (HMVEC); experiment: HMVEC tube formation on growth factor-reduced Matrigel; assay type: cell-based; settings: GFR Matrigel
Protocol: FIG. 11. Human dermal microvascular endothelial cell (HMVEC) tube formation was assessed on growth factor-reduced Matrigel (GFR, BD Biosciences) with CD13. […] Arrows indicate the number of tubes formed in each group. n=number of replicates in each group. The number of tubes formed was quantitated by an observer blinded to the experimental groups.
HMVEC Matrigel tube formation assay. After finding that CD13 is chemotactic for HMVECs, the role of CD13 in RA is examined by performing HMVEC capillary morphogenesis assay on Matrigel tube with sham- or CD13-depleted RA SFs. Growth factor-reduced Matrigel (GFR, BD Biosciences) is used to perform this assay (56-58). CD13- or sham-depleted RA SFs are used as test groups (58). The chambers are incubated for 16 to 18 hours at 37° C. in a 5% CO2 humidified atmosphere. Cells are fixed and stained with Diff-Quik. The number of tubes formed is quantitated by an observer blinded to the experimental groups. bFGF (30 nM) and phosphate buffered saline (PBS) serve as positive and negative controls, respectively.

B1: CD13: recombinant Aminopeptidase N/CD13 used as stimulus; recombinant mouse CD13 planned for knee injection (protein, UniProt P15144 2-967, looked up)
Aminopeptidase N: AKGFYISKSLGILGILLGVAAVCTIIALSVVYSQEKNKNANSSPVASTTPSASATTNPASATTLDQSKAWNRYRLPNTLKPDSYRVTLRPYLTPNDRGLYVFKGSSTVRFTCKEATDVIIIHSKKLNYTLSQGHRVVLRGVGGSQPPDIDKTELVEPTEYLVVHLKGSLVKDSQYEMDSEFEGELADDLAGFYRSEYMEGNVRKVVATTQMQAADARKSFPCFDEPAMKAEFNITLIHPKDLTALSNMLPKGPSTPLPEDPNWNVTEFHTTPKMSTYLLAFIVSEFDYVEKQASNGVLIRIWARPSAIAAGHGDYALNVTGPILNFFAGHYDTPYPLPKSDQIGLPDFNAGAMENWGLVTYRENSLLFDPLSSSSSNKERVVTVIAHELAHQWFGNLVTIEWWNDLWLNEGFASYVEYLGADYAEPTWNLKDLMVLNDVYRVMAVDALASSHPLSTPASEINTPAQISELFDAISYSKGASVLRMLSSFLSEDVFKQGLASYLHTFAYQNTIYLNLWDHLQEAVNNRSIQLPTTVRDIMNRWTLQMGFPVITVDTSTGTLSQEHFLLDPDSNVTRPSEFNYVWIVPITSIRDGRQQQDYWLIDVRAQNDLFSTSGNEWVLLNLNVTGYYRVNYDEENWRKIQTQLQRDHSAIPVINRAQIINDAFNLASAHKVPVTLALNNTLFLIEERQYMPWEAALSSLSYFKLMFDRSEVYGPMKNYLKKQVTPLFIHFRNNTNNWREIPENLMDQYSEVNAISTACSNGVPECEEMVSGLFKQWMENPNNNPIHPNLRSTVYCNAIAQGGEEEWDFAWEQFRNATLVNEADKLRAALACSKELWILNRYLSYTLNPDLIRKQDATSTIISITNNVIGQGLVWDFVQSNWKKLFNDYGGGSFSFSNLIQAVTRRFSTEYELQQLEQFKKDNEETGFGSGTRALEQALEKTKANIKWVKENKEVVLQWFTENSK
concentrations at which HMVEC migration was induced [1]: 500 to 2000 ng/mL | hemoglobin (Hb) in Matrigel plugs compared to PBS (C57Bl/6 mice [2]): more than a four-fold increase in Hb | MN migration (normal human MN): concentration-dependent increase in MN migration | effect of additional rhCD13 on RA FLS proliferation and migration (RA FLS): did not consistently affect the RA FLS | increase in mouse knee circumference compared to PBS (C57Bl/6 mice [3]): 2-3 fold | EC tubes formed compared to PBS [4]: almost two-fold more numerous
